{
  "source": "paper PMC5877385",
  "about": "“Gold nanoparticles stabilize peptide-drug-conjugates for sustained targeted drug delivery to cancer cells” (Journal of Nanobiotechnology, 2018)",
  "key": {"[1]": {"assay": "Chemostability in phosphate buffer", "format": "physicochemical", "conditions": "free PDC; 0.01 M phosphate buffer (method pH 7.2), 37 °C, LC-MS PDC peak area, exponential decay fit, two independent experiments", "protocol": "Stock solutions were prepared by dissolving 5 mg of P4-chlorambucil, P4-melphalan or P4-bendamustine coated PEG-AuNPs in 1 mL of deionized water.\n100 μl of stock solution were diluted to 1 ml of 0.01 M phosphate buffer solution pH 7.2 and incubated at 37 °C. At designated time points an aliquot was removed and centrifuged at 5000 rpm for 5 min. The supernatant was recovered, filtered through a […] syringe and analyzed by LCMS for the presence of free drug. Results for each time point were expressed as mean % PDC integrity ± standard error, calculated from two independent experiments.\n(§1) The chemo-stability of the P4-PDCs was tested at a physiological pH of 7.4, while the solutions were incubated at 37 °C. Biostability was assessed after incubation in a mouse liver homogenate. In each case aliquots were taken at selected times and analyzed by LC–MS. PDC integrity was determined by calculating the area under the curve of the PDC peak. The R^2 values of the exponential decay curves ranged from 0.97 to 0.99 for the three PDCs; the functions of these curves were used to calculate the t½ values. […] In liver homogenate (Fig. 5c), stability decayed more rapidly with half-lives ranging from 10.6 to 15.4 min. There was no significant difference in behavior between the three PDCs and no free drug was observed."}, "[2]": {"assay": "Biostability in liver homogenate", "format": "in vitro ADME", "conditions": "pH 7.4; free PDC; 100 µl sample in 1 ml mouse liver homogenate (6 mg total protein), 37 °C, LC-MS, exponential decay fit; read-out: Biostability (liver homogenate) t½", "protocol": "Mice were sacrificed by CO2 euthanasia. Livers were removed, and rinsed in cold 0.01 M PBS buffer pH 7.4. They were transferred to 10 ml Tris-HCI, pH 7.4 and homogenized in a Potter–Elvehjem glass tissue grinder for 4 min. The tissue homogenate was centrifuged for 20 min at 4 °C, 14,000 rpm, and the supernatant was collected. Protein concentration was measured using the BCA protein assay using bovine serum albumin as a standard. The homogenate was used immediately or else stored in liquid nitrogen.\n100 μl of each sample was added to 1 ml of liver homogenate (equivalent to 6 mg total protein). The samples were incubated at 37 °C and aliquots were taken during the different incubation period at different time intervals. The collected aliquots were immediately filtered, and analyzed by LC–MS.\nas §1"}, "A20 cells": {"system": "A20 cells", "assay": "Cell cytotoxicity assay (XTT)", "format": "cell-based, murine", "conditions": "72 h, free drug 0-50 µM; for IC50: Mus musculus", "protocol": "To measure drug cytotoxic effect, cells were seeded into 96-wells Nunclon culture plates at 2.5 × 10^3 cells per well and grown overnight at 37 °C. The spent medium was removed and the cells cultured for 72 h in fresh medium containing either free drug, PDCs, PEG-AuNPs or PDC-PEG-AuNPs at concentrations ranging from 0 to 50 µM (drug) filtered through a 0.22 µm syringe. Cellular metabolic status, used as a measure of cell viability, was then determined by replacing the culture medium with fresh medium containing XTT reagent (50 µl/well) and the cells were re-cultured for 2 h sat 37 °C. Absorbance in the wells was measured at 450 nm and subtracted from the reference absorbance at 630 nm. Culture medium was used as background control. All experiments were performed in triplicate on three separate occasions. Data are presented as mean ± S.D."}},
  "note": "Where a SMILES comes first, the peptide text is derived from it. [ ]: non-standard residue; d: D form. The star is where a group is joined. Phe(4-N(CH2CH2Cl)2) = N[C@@H](Cc1ccc(N(CCCl)CCCl)cc1)C(=O)O; Chlorambucil = O=C(CCCc1ccc(N(CCCl)CCCl)cc1)*; X1 = Cn1c(CCCC(=O)*)nc2cc(N(CCCl)CCCl)ccc21",
  "data": [
    {"smiles": "C[C@@H](O)[C@H](NC(=O)[C@H](CO)NC(=O)[C@H](Cc1c[nH]cn1)NC(=O)[C@@H](N)Cc1ccc(N(CCCl)CCCl)cc1)C(=O)N1CCC[C@H]1C(=O)N[C@@H](CO)C(=O)N[C@@H](CO)C(=O)N1CCC[C@H]1C(=O)O", "note": "[P4-Melphalan] (H-[Phe(4-N(CH2CH2Cl)2)]HSTPSSP-OH)", "values": [
      {"measurement": "Chemostability (pH 7.4) t½", "setting": "[1]", "value": 24.6, "unit": "mins"},
      {"measurement": "half-life", "setting": "[2]", "value": 10.6, "unit": "min"}
    ]},
    {"smiles": "Cn1c(CCCC(=O)O)nc2cc(N(CCCl)CCCl)ccc21", "note": "[bendamustine]", "values": [
      {"measurement": "maximal %GI (growth inhibition)", "setting": "A20 cells", "value": 43.1, "unit": "%"},
      {"measurement": "IC50", "setting": "A20 cells", "value": "> 50", "unit": "µM"}
    ]},
    {"smiles": "N[C@@H](Cc1ccc(N(CCCl)CCCl)cc1)C(=O)O", "note": "[Melphalan]", "values": [
      {"measurement": "maximal %GI (growth inhibition)", "setting": "A20 cells", "value": 94.9, "unit": "%"},
      {"measurement": "IC50", "setting": "A20 cells", "value": 9.6, "unit": "µM"}
    ]},
    {"smiles": "C[C@@H](O)[C@H](NC(=O)[C@H](CO)NC(=O)[C@H](Cc1c[nH]cn1)NC(=O)CCCc1ccc(N(CCCl)CCCl)cc1)C(=O)N1CCC[C@H]1C(=O)N[C@@H](CO)C(=O)N[C@@H](CO)C(=O)N1CCC[C@H]1C(=O)O", "note": "[P4-Chlorambucil] (Chlorambucil-HSTPSSP-OH)", "values": [
      {"measurement": "Chemostability (pH 7.4) t½", "setting": "[1]", "value": 21.5, "unit": "mins"},
      {"measurement": "half-life", "setting": "[2]", "value": 12.4, "unit": "min"}
    ]},
    {"smiles": "C[C@@H](O)[C@H](NC(=O)[C@H](CO)NC(=O)[C@H](Cc1c[nH]cn1)NC(=O)CCCc1nc2cc(N(CCCl)CCCl)ccc2n1C)C(=O)N1CCC[C@H]1C(=O)N[C@@H](CO)C(=O)N[C@@H](CO)C(=O)N1CCC[C@H]1C(=O)O", "note": "[P4-Bendamustine] (X1-HSTPSSP-OH)", "values": [
      {"measurement": "Chemostability (pH 7.4) t½", "setting": "[1]", "value": 19.3, "unit": "mins"},
      {"measurement": "half-life", "setting": "[2]", "value": 15.4, "unit": "min"}
    ]},
    {"smiles": "O=C(O)CCCc1ccc(N(CCCl)CCCl)cc1", "note": "[Chlorambucil]", "values": [
      {"measurement": "maximal %GI (growth inhibition)", "setting": "A20 cells", "value": 89.4, "unit": "%"},
      {"measurement": "IC50", "setting": "A20 cells", "value": 15.8, "unit": "µM"}
    ]}
  ]
}
